Tests used:
Conditions in all cases: 20 nM; 72 h
MCF10A [1] = test: percent viability (nuclei count relative to siNT); higher = more viable cells
Method: (§1)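 After 72 h, cells were fixed and stained with Hoechst and anti-fibrillarin, and nucleoli per nucleus were counted with CellProfiler. Values are plate-adjusted percent effect for the one-nucleolus and 5+ nucleoli phenotypes, normalised to siNT (0%) and to the positive controls siNOL11 or siKIF11 (100%), as the mean of biological triplicates. Percent viability is the nuclei count relative to siNT.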

MCF10A [2] = test: one-nucleolus phenotype percent effect (relative to siNT 0% and siNOL11 100%); higher = more cells with one nucleolus (ribosome biogenesis inhibition)
Method: as §1

MCF10A [3] = test: 5+ nucleoli phenotype percent effect (relative to siNT 0% and siKIF11 100%); higher = more cells with five or more nucleoli
Method: as §1

Sequence	percent viability (MCF10A [1])	one-nucleolus phenotype percent effect (MCF10A [2])	5+ nucleoli phenotype percent effect (MCF10A [3])
UACGUAGAUAUAUAUGUAUUUU [hsa-miR-1277-3p]	135%	-20.9%	41.8%
AUAGCAGCAUGAACCUGUCUCA [hsa-miR-4524a-5p]	24.9%	21.6%	-12.6%
CGCAGACAAUGCCUACUGGCCUA [hsa-miR-3166]	21.3%	6.38%	-21.5%
UAUGGAAAGACUUUGCCACUCU [hsa-miR-3688-3p]	54%	-10.8%	57.1%
CUCCUAUAUGAUGCCUUUCUUC [hsa-miR-337-3p]	52%	-11%	2.51%
CUGUUGCCACUAACCUCAACCU [hsa-miR-744-3p]	56%	27.3%	-44.1%
AUCUGUAAGAGAAAGUAAAUGA [hsa-miR-3686]	48.4%	-0.187%	21.5%
AGGGAAGGAGGCUUGGUCUUAG [hsa-miR-4747-5p]	29.6%	-5.76%	11.6%
CCAUGAAGCAGUGGGUAGGAGGAC [hsa-miR-8060]	43.2%	6.65%	14.9%
CCUCUUCCCCUUGUCUCUCCAG [hsa-miR-1236-3p]	76.4%	-6.25%	14.8%
GCCCUGAACGAGGGGUCUGGAG [hsa-miR-345-3p]	61%	-13.5%	29.8%
GUGCAUUGCUGUUGCAUUGC [hsa-miR-33b-5p]	48.5%	-2.4%	36%
UCAGGGAGUCAGGGGAGGGC [hsa-miR-4270]	9.71%	36.8%	-37.6%
AGGGACGGGACGCGGUGCAGUG [hsa-miR-92b-5p]	75.4%	2.12%	34.3%
UCCUAAAUCUGAAAGUCCAAAA [hsa-miR-5009-3p]	117%	-25.9%	46.2%
UUCUCGAGGAAAGAAGCACUUUC [hsa-miR-516a-5p]	127%	-19.5%	22.1%
CGGGGAGAGAACGCAGUGACGU [hsa-miR-3175]	33.4%	5.01%	-3.98%
ACCCUUUUUCUCUUUCCCAG [hsa-miR-6832-3p]	76.6%	-12.4%	38.2%
UGAGGUAGUAGUUUGUACAGUU [hsa-let-7g-5p]	21.6%	-16.7%	29%
AGGCACCAGCCAGGCAUUGCUCAGC [hsa-miR-593-5p]	40.2%	12.3%	-0.886%
GCCGGGGCUUUGGGUGAGGG [hsa-miR-6784-5p]	171%	-23.3%	49%
AUCCGCGCUCUGACUCUCUGCC [hsa-miR-937-3p]	78.1%	-5.97%	8.26%
AUGAGACUCAUGUAAAACAUCUU [hsa-miR-3672]	52.6%	34.3%	-24.8%
UCUGUGCCCCUACUUCCCAG [hsa-miR-6889-3p]	63%	-15.5%	16.2%

From the supplement of paper PMC10899765
